Biological target: SARS-CoV nucleocapsid protein, recombinant (SARS-CoV, UniProt P59595 1-422)
Assay: SPR

Sequence of SARS-CoV nucleocapsid protein, recombinant (P59595 whole entry): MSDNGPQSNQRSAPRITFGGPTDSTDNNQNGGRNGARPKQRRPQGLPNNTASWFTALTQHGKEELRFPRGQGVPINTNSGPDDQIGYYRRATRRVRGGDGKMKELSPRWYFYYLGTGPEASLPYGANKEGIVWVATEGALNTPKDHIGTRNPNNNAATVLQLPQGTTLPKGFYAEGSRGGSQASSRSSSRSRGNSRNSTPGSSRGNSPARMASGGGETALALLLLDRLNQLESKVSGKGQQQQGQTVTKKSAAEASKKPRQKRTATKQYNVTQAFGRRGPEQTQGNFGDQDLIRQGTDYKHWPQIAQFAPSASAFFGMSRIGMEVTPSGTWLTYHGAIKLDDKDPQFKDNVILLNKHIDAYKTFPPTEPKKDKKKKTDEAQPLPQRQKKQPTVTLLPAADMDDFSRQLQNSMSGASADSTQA

B1: P301-F7 (antibody, V domains shown)
VH: QLQLQESGPGLVKPSETLSLTCTVSGGSISSTSYYWGWIRQPPGKGLEWIGSIYYSGSTYYNPSLKSRVTISVDTSKNQFSLKLSSVTAADTAVYYCARFSLYCSSTSCYENWFDPWGQGTLVTVSS
VL: QSVLTQPPSVSAAPGQKVTISCSGSSSNIGNNYVSWYQQLPGTAPKLLIYDNNKRPSGIPDRFSGSKSGTSATLGITGLQTGDEADYYCGTWDSSLSAGQVVFGGGTKLTVL
B1 was tested, and the Kd was 33.4 nM.

Source: paper PMC9142731 (2022)
